Experimental data taken from patent US20100204105A1 (ZEALAND PHARMA A S, published 2010).

Tests used:
[1] = target: human glucagon-like peptide 1 receptor (GLP-1R) (human, UniProt P43220 24-463); assay: cell-based or functional assay
[2] = target: human glucagon receptor (Glucagon-R) (human, UniProt P47871 26-477); assay: cell-based or functional assay
Chain of human glucagon receptor (Glucagon-R) (P47871 26-477): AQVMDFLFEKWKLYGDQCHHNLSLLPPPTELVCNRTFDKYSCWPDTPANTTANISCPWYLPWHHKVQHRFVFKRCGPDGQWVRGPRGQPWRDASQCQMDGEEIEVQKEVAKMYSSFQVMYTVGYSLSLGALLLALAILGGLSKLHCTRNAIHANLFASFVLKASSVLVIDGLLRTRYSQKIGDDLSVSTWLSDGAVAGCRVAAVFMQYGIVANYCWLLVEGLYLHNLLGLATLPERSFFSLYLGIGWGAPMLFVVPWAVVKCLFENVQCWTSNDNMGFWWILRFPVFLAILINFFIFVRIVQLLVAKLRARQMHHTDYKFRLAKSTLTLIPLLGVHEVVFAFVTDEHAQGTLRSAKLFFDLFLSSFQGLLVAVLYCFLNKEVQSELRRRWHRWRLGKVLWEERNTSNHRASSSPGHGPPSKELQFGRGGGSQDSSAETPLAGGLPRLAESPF

B1: Compound 3 (H-HSQGTFTSDYSKYLDRARADDFVAWLKST-NH2) (peptide)
peptide: H-HSQGTFTSDYSKYLDRARADDFVAWLKST-NH2
[1]
  EC50, cAMP content in HEK293 cells expressing hGLP-1-R (FlashPlate cAMP kit): 9.3 µM
[2]
  EC50, cAMP content in HEK293 cells expressing hGlucagon-R (FlashPlate cAMP kit): 7.3 µM
  EC50, cAMP content in HEK293 cells expressing hGlucagon-R (FlashPlate cAMP kit), re-test: 0.00049 µM
